Measurements published in paper PMC5454392, “Selective BET bromodomain inhibition as an antifungal therapeutic strategy” (Nature Communications, 2017).
Numbered stars: 1 amine (or outer) side, 2 acyl side, 3 side chain; on linkers, the order of the positions; unused ones are H or OH. Square brackets hold non-standard residues; d marks the D form. Ends that are not written are not given here. Arg(Me2a) = CN(C)C(=N)NCCC[C@H](N)C(=O)O; Kac = CC(=O)NCCCC[C@H](N[*:1])C(=O)[*:2]; Lys(Me3) = C[N+](C)(C)CCCC[C@H](N)C(=O)O; Arg(Me2s) = CN=C(NC)NCCC[C@H](N)C(=O)O; pT = C[C@@H](OP(=O)(O)O)[C@H](N)C(=O)O; Lys(Me2) = CN(C)CCCC[C@H](N)C(=O)O; pS = N[C@@H](COP(=O)(O)O)C(=O)O; Lys(Me) = CNCCCC[C@H](N)C(=O)O; Me2a = not defined here; me2a = not defined here

Target: T1, CaBdf1 BD2 (GST-tagged, wild-type) (Candida albicans (strain SC5314 / ATCC …, UniProt Q5A4W8))
T1 chain: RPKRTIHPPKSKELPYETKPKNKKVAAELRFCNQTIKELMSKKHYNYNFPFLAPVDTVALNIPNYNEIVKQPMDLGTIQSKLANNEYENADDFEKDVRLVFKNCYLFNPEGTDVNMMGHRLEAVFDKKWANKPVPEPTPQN
Experiment: histone peptide array (Active Motif MODified), 1 uM GST-tagged bromodomain, anti-GST detection, normalized mean intensity

Binder	binding score
AR(me2s)TK(Me)QTARKSTGGKAPRKQ	0.00037
PRKQLATKAARKSAPATGG (P R K Q L A T K A A Rme2a Kme3 S A P A T G G)	0.00703
SGRGKGGKGLGKGGAKRHR (S G Rme2s G Kac G G Kac G L G Kac G G A K R H R)	0.332
A[Arg(Me2s)]T[Lys(Me)]QTA[Arg(Me2a)][Lys(Me3)]STGGKAPRKQ	0.00592
SGRGKGGKGLGKGGAKRHR (S G Rme2a G Kac G G Kac G L G Kac G G A K R H R)	0.375
[pS]GRGKQGGKARAK(Ac)AKSRSS	0.02
ARTKQTARKSTGGKAPRKQ (A R T Kac Q T A Rme2a Kac S T G G K A P R K Q)	0.0126
SGRGK(Ac)QGGKARAK(Ac)AKSRSS	0.0859
ARTKQTARKSTGGKAPRKQ (A Rme2s T Kme3 Q T A Rme2s Kme2 S T G G K A P R K Q)	0.00407
PRKQLATKAAR(Me2a)K(Ac)[pS]APATGG (reading uncertain)	0.00222
PRKQLATKAARK[pS]APATGG	0.00555
SGRGKGGKGLGKGGAKRHR (S G Rme2a G Kac G G K G L G K G G A K R H R)	0.00703
ARTKQTARKSTGGKAPRKQ (A Rme2a T Kme1 Q T A Rme2a K S T G G K A P R K Q)	0.00259
ARTKQTARKSTGGKAPRKQ (A R T K Q T A Rme2s Kme2 S pT G G K A P R K Q)	0.00259
PDPAK(Ac)SAPAPKKG[pS]K(Ac)KAVT	0.174
ARTK(me2)QTAR(me2a)K(me2)STGGKAPRKQ (reading uncertain)	0.00259
A[Arg(Me2a)]T[Lys(Me)]QTAR[Kac]STGGKAPRKQ	0.00592
ARTKQTARKSTGGKAPRKQ (A Rme2s T Kme2 Q T A Rme2a Kme2 S T G G K A P R K Q)	0.00666
ARTKQTARKSTGGKAPRKQ (A R T Kme2 Q T A Rme2s Kac S T G G K A P R K Q)	0.00592
A[Arg(Me2a)][pT][Lys(Me3)]QTARKSTGGKAPRKQ	0.00074
ARTKQTARKSTGGKAPRKQ (A R T K Q T A Rme2a Kme2 pS T G G K A P R K Q)	0.00259
AR(Me2s)TK(Me)QTAR(Me2a)K(Me)STGGKAPRKQ (reading uncertain)	0.00222
ARTKQTARKSTGGKAPRKQ (A R T Kme3 Q T A Rme2s Kme2 S T G G K A P R K Q)	0.00407
SGRGKQGGK(Ac)ARAKAKSRSS	0.00814
A[Arg(Me2a)]T[Lys(Me2)]QTAR[Lys(Me2)]STGGKAPRKQ	0.00222

Binder	binding score
ARTKQTARKSTGGKAPRKQ (A R T K Q T A R K pS T G G Kac A P R K Q)	0.0107
ARTK(Me)QTAR(me2s)K(Me)STGGKAPRKQ	0.00592
A[Arg(Me2s)][pT]KQTARKSTGGKAPRKQ	0.00074
PRKQLATKAAR(Me2s)KSAPATGG	0.0037
PRKQLATKAA[Arg(Me2a)]K[pS]APATGG	0.00407
A[Arg(Me2s)][pT]K(Me)QTARKSTGGKAPRKQ	0.0037
ARTKQTARKSTGGKAPRKQ (A R T K Q T A R K pS T G G K A P R K Q)	0.00074
A[Arg(Me2a)]T[Lys(Me)]QTA[Arg(Me2s)][Lys(Me)]STGGKAPRKQ	0.0037
ARTKQTARKSTGGKAPRKQ (A Rme2s pT Kme3 Q T A R K S T G G K A P R K Q)	0.00185
PRKQLATKAAR(Me2a)K(Me)[pS]APATGG (reading uncertain)	0.00703
PRKQLATKAARK(Me2)[pS]APATGG	0.00074
AR(Me2a)TK(Ac)QTAR(Me2a)K(Ac)STGGKAPRKQ (reading uncertain)	0.0107
ARTKQTARKSTGGKAPRKQ (A R T K Q T A Rme2s Kme1 S pT G G K A P R K Q)	0.00407
PDPAKSAPAPKKG[pS]KKAVT	0.00148
ARTKQTARKSTGGKAPRKQ (A Rme2a T Kac Q T A R Kme2 S T G G K A P R K Q)	0.00407
[pS]GRGKQGGK(Ac)ARAK(Ac)AKSRSS	0.00592
ARTKQTARKSTGGKAPRKQ (not fully specified)	0.00259
ARTKQTARKSTGGKAPRKQ (A R T K Q T A R Kme3 pS T G G K A P R K Q)	0.00333
ARTKQTARKSTGGKAPRKQ (A Rme2s T Kac Q T A Rme2a Kme3 S T G G K A P R K Q)	0.00407
ARTKQTARKSTGGKAPRKQ (A Rme2s T Kac Q T A R Kme3 S T G G K A P R K Q)	0.00259
SGRGKGGKGLGKGGAKRHR (pS G R G Kac G G K G L G K G G A K R H R)	0.00555
ARTKQTARKSTGGKAPRKQ (A Rme2s T Kac Q T A Rme2a Kac S T G G K A P R K Q)	0.00851
PRKQLATKAARK(Ac)[pS]APATGG	0.00148
ARTKQTARKSTGGKAPRKQ (A Rme2s T Kme1 Q T A Rme2s Kac S T G G K A P R K Q)	0.00555

Target: T2, CaBdf1 BD1 (GST-tagged, wild-type) (Candida albicans (strain SC5314 / ATCC …, UniProt Q5A4W8))
T2 chain: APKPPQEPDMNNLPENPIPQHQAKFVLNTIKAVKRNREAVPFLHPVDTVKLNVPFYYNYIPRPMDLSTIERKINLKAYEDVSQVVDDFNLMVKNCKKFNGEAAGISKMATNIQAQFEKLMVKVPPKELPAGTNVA
Experiment: as above

Binder	binding score
AR(me2s)TK(Me)QTARKSTGGKAPRKQ	0.00326
PRKQLATKAARKSAPATGG (P R K Q L A T K A A Rme2a Kme3 S A P A T G G)	0.00363
SGRGKGGKGLGKGGAKRHR (S G Rme2s G Kac G G Kac G L G Kac G G A K R H R)	0.175
A[Arg(Me2s)]T[Lys(Me)]QTA[Arg(Me2a)][Lys(Me3)]STGGKAPRKQ	0.0058
SGRGKGGKGLGKGGAKRHR (S G Rme2a G Kac G G Kac G L G Kac G G A K R H R)	0.236
[pS]GRGKQGGKARAK(Ac)AKSRSS	0.0906
ARTKQTARKSTGGKAPRKQ (A R T Kac Q T A Rme2a Kac S T G G K A P R K Q)	0.0464
SGRGK(Ac)QGGKARAK(Ac)AKSRSS	0.109
ARTKQTARKSTGGKAPRKQ (A Rme2s T Kme3 Q T A Rme2s Kme2 S T G G K A P R K Q)	0.0029
PRKQLATKAAR(Me2a)K(Ac)[pS]APATGG (reading uncertain)	0.0058
PRKQLATKAARK[pS]APATGG	0.00218
SGRGKGGKGLGKGGAKRHR (S G Rme2a G Kac G G K G L G K G G A K R H R)	0.0105
ARTKQTARKSTGGKAPRKQ (A Rme2a T Kme1 Q T A Rme2a K S T G G K A P R K Q)	0.00435
ARTKQTARKSTGGKAPRKQ (A R T K Q T A Rme2s Kme2 S pT G G K A P R K Q)	0.00906
PDPAK(Ac)SAPAPKKG[pS]K(Ac)KAVT	0.0656
ARTK(me2)QTAR(me2a)K(me2)STGGKAPRKQ (reading uncertain)	0.000725
A[Arg(Me2a)]T[Lys(Me)]QTAR[Kac]STGGKAPRKQ	0.0359
ARTKQTARKSTGGKAPRKQ (A Rme2s T Kme2 Q T A Rme2a Kme2 S T G G K A P R K Q)	0.0029
ARTKQTARKSTGGKAPRKQ (A R T Kme2 Q T A Rme2s Kac S T G G K A P R K Q)	0.0305
A[Arg(Me2a)][pT][Lys(Me3)]QTARKSTGGKAPRKQ	0.00725
ARTKQTARKSTGGKAPRKQ (A R T K Q T A Rme2a Kme2 pS T G G K A P R K Q)	0.00471
AR(Me2s)TK(Me)QTAR(Me2a)K(Me)STGGKAPRKQ (reading uncertain)	0.00435
ARTKQTARKSTGGKAPRKQ (A R T Kme3 Q T A Rme2s Kme2 S T G G K A P R K Q)	0.00254
SGRGKQGGK(Ac)ARAKAKSRSS	0.0276
A[Arg(Me2a)]T[Lys(Me2)]QTAR[Lys(Me2)]STGGKAPRKQ	0.00399

Binder	binding score
ARTKQTARKSTGGKAPRKQ (A R T K Q T A R K pS T G G Kac A P R K Q)	0.0301
ARTK(Me)QTAR(me2s)K(Me)STGGKAPRKQ	0.00689
A[Arg(Me2s)][pT]KQTARKSTGGKAPRKQ	0.00326
PRKQLATKAAR(Me2s)KSAPATGG	0.00616
PRKQLATKAA[Arg(Me2a)]K[pS]APATGG	0.00435
A[Arg(Me2s)][pT]K(Me)QTARKSTGGKAPRKQ	0.00181
ARTKQTARKSTGGKAPRKQ (A R T K Q T A R K pS T G G K A P R K Q)	0.00181
A[Arg(Me2a)]T[Lys(Me)]QTA[Arg(Me2s)][Lys(Me)]STGGKAPRKQ	0.00471
ARTKQTARKSTGGKAPRKQ (A Rme2s pT Kme3 Q T A R K S T G G K A P R K Q)	0.00363
PRKQLATKAAR(Me2a)K(Me)[pS]APATGG (reading uncertain)	0.0029
PRKQLATKAARK(Me2)[pS]APATGG	0.0029
AR(Me2a)TK(Ac)QTAR(Me2a)K(Ac)STGGKAPRKQ (reading uncertain)	0.0413
ARTKQTARKSTGGKAPRKQ (A R T K Q T A Rme2s Kme1 S pT G G K A P R K Q)	0.0029
PDPAKSAPAPKKG[pS]KKAVT	0.00326
ARTKQTARKSTGGKAPRKQ (A Rme2a T Kac Q T A R Kme2 S T G G K A P R K Q)	0.0112
[pS]GRGKQGGK(Ac)ARAK(Ac)AKSRSS	0.0642
ARTKQTARKSTGGKAPRKQ (not fully specified)	0
ARTKQTARKSTGGKAPRKQ (A R T K Q T A R Kme3 pS T G G K A P R K Q)	0.00363
ARTKQTARKSTGGKAPRKQ (A Rme2s T Kac Q T A Rme2a Kme3 S T G G K A P R K Q)	0.00471
ARTKQTARKSTGGKAPRKQ (A Rme2s T Kac Q T A R Kme3 S T G G K A P R K Q)	0.00616
SGRGKGGKGLGKGGAKRHR (pS G R G Kac G G K G L G K G G A K R H R)	0.0167
ARTKQTARKSTGGKAPRKQ (A Rme2s T Kac Q T A Rme2a Kac S T G G K A P R K Q)	0.0573
PRKQLATKAARK(Ac)[pS]APATGG	0.0029
ARTKQTARKSTGGKAPRKQ (A Rme2s T Kme1 Q T A Rme2s Kac S T G G K A P R K Q)	0.0344
